The assay concerns the target His-Tau-Strep (human 4R2N Tau) (human, UniProt P10636-8 1-441). Description: AlphaScreen or HTRF.

B1: GST-Fyn-SH3-Strep (human Fyn-SH3 domain) (domain or fragment)
chain: not shown
Turning to B1, the binding result was “binds”.

The record behind these values is PMC10903085 (Neurotherapeutics, 2023).
